Experimental data from patent publication US8247535B2, “Directed evolution of GRG31 EPSP synthase enzyme” (Athenix Corp., priority 2008, dated 2012).

Assays:
Format in all cases: biochemical
GRG31 EPSP synthase [1] = experiment: Kinetic analysis of GRG31 variants (Ki for glyphosate, Km for PEP, Vmax); set-up: Vmax: unit not given here; settings: for Ki: Ki for glyphosate, calculated from plot of Km(app) vs. glyphosate concentration; for Km: Km for PEP; for Vmax: unit not given
Procedure: GRG31 variants L3P2b11, L3P2c11 and L4e11, and L5e3 were characterized by enzymatic assays as described herein, and compared to the native GRG31 enzyme. For each enzyme the apparent Km (Km(app)) was determined at each of several glyphosate concentrations, and a plot of Km(app) vs. glyphosate concentration was used to calculate the Ki for each enzyme. The thermostability for each enzyme was assessed by incubating the enzyme at 37° C. for 16 hours, and then quantifying the enzymatic activity remaining (as Vmax) vs. control enzyme that was incubated at 4° C.

GRG31 EPSP synthase [2] = experiment: Extract prescreens of library clones at a few glyphosate and PEP concentrations; settings: for activity in glyphosate prescreen: 0, 1, and 2 mM glyphosate, among 31 resistant clones; for combination of glyphosate resistance and activity at low PEP concentrations: library 3, 0 and 0.2 mM glyphosate, 0, 20, and 50 μM PEP
Procedure: Library 1 was cloned into pAX3625 and 130,000 clones were plated onto plates containing 50 mM glyphosate. […] Extracts were prepared and assessed for glyphosate resistance by assaying activity in the presence of a small number of glyphosate concentrations (0, 1, and 2 mM glyphosate).
Extracts from these six clones were assayed for activity at a range of PEP concentrations (0, 20, 50, and 100 μM PEP).
One hundred and fifteen thousand (115,000) clones were plated onto plates containing 50 mM glyphosate and 384 glyphosate resistant clones were picked for sequencing. […] A Ki assessment of the unique clones was carried out by testing activity at 0 and 0.2 mM glyphosate. […] An assessment of the Km of protein encoded by these nine clones was performed by comparing activity at 0, 20, and 50 μM PEP.

GRG31 EPSP synthase [3] = settings: for thermostability at 37° C. compared with GRG31: survival of activity at 37° C., in words
Procedure: The thermostability of several variants of GRG31 was analyzed by measuring survival of activity at 37° C.

B1: GRG31pm3b8: GRG31 variant I75→C; P77→N; M82→T, SEQ ID NO:10 (protein)
chain: MNQQVITLTHPSKKIQGTVQLTGSKSESNRALIIQSLSKGQVEIANLSEAADTVTLNRVLQIASDPKPGFNTIDCGNAGTATRFLTAYLNLVKGNFILTGTERMQQRPIGILVDAMKEIGADIHYDKKVGYPPLKIEGGLFQEKDRVKIKGNISSQYISALLLIAPALKKGLTLEIEGELTSRPYVSMTLDMLKSVGIQHEWKNNAIKIAPQAFEKQTIYVEPDWSAASYWYAIAALADANASIVLPGLRKNSLQGDIAIISIMEHFGVQSSFESDGLHLNKKVIGSDVSLFNFKECPDLAQTVVVVAAALKRDVSFTGLETLKIKETDRIAALQKEIAKFGAELIEDGDTYHLKTAQVYQPEEVTFDTYEDHRMAMAFAPLALVFDQIKIAEPQVVEKSYPDFWNHLQAQAFVIE
modifications: GRG31 variant (clone GRG31pm3b8)
GRG31 EPSP synthase [1]
  Ki: 116 µM
GRG31 EPSP synthase [2]; extracts
  activity in glyphosate prescreen: best activity
GRG31 EPSP synthase [2]; extracts, 0, 20, 50, and 100 μM PEP, among six clones
  activity at low PEP concentrations: best activity at low PEP concentrations

B2: GRG31pm3b9: GRG31 Q-loop library 1 variant, SEQ ID NO:11 (protein)
chain: MNQQVITLTHPSKKIQGTVQLTGSKSESNRALIIQSLSKGQVEIANLSEAADTVTLNRVLQIASDPKPGFNTIDCDAAGTSMRFLAAYLNLVKGNFILTGTERMQQRPIGILVDAMKEIGADIHYDKKVGYPPLKIEGGLFQEKDRVKIKGNISSQYISALLLIAPALKKGLTLEIEGELTSRPYVSMTLDMLKSVGIQHEWKNNAIKIAPQAFEKQTIYVEPDWSAASYWYAIAALADANASIVLPGLRKNSLQGDIAIISIMEHFGVQSSFESDGLHLNKKVIGSDVSLFNFKECPDLAQTVVVVAAALKRDVSFTGLETLKIKETDRIAALQKEIAKFGAELIEDGDTYHLKTAQVYQPEEVTFDTYEDHRMAMAFAPLALVFDQIKIAEPQVVEKSYPDFWNHLQAQAFVIE
modifications: GRG31 variant (clone GRG31pm3b9)
GRG31 EPSP synthase [2]; extracts
  activity in glyphosate prescreen: best activity

B3: L3P2b11: GRG31 variant P77→Q; A81→S; M82→L; Y88→F, SEQ ID NO:13 (protein)
chain: MNQQVITLTHPSKKIQGTVQLTGSKSESNRALIIQSLSKGQVEIANLSEAADTVTLNRVLQIASDPKPGFNTIDIGQAGTSLRFLTAFLNLVKGNFILTGTERMQQRPIGILVDAMKEIGADIHYDKKVGYPPLKIEGGLFQEKDRVKIKGNISSQYISALLLIAPALKKGLTLEIEGELTSRPYVSMTLDMLKSVGIQHEWKNNAIKIAPQAFEKQTIYVEPDWSAASYWYAIAALADANASIVLPGLRKNSLQGDIAIISIMEHFGVQSSFESDGLHLNKKVIGSDVSLFNFKECPDLAQTVVVVAAALKRDVSFTGLETLKIKETDRIAALQKEIAKFGAELIEDGDTYHLKTAQVYQPEEVTFDTYEDHRMAMAFAPLALVFDQIKIAEPQVVEKSYPDFWNHLQAQAFVIE
modifications: GRG31 variant (clone L3P2b11)
GRG31 EPSP synthase [1]
  Ki: 983 µM
  Km: 11 µM
  Vmax: 5.7
GRG31 EPSP synthase [1]; relative to GRG31, in words
  improvement in Ki for glyphosate relative to GRG31: improved
GRG31 EPSP synthase [2]
  combination of glyphosate resistance and activity at low PEP concentrations: best combination of glyphosate resistance and activity at low PEP concentrations

B4: L5e3: GRG31 variant P77→T, SEQ ID NO:17 (protein)
chain: MNQQVITLTHPSKKIQGTVQLTGSKSESNRALIIQSLSKGQVEIANLSEAADTVTLNRVLQIASDPKPGFNTIDIGTAGTAMRFLTAYLNLVKGNFILTGTERMQQRPIGILVDAMKEIGADIHYDKKVGYPPLKIEGGLFQEKDRVKIKGNISSQYISALLLIAPALKKGLTLEIEGELTSRPYVSMTLDMLKSVGIQHEWKNNAIKIAPQAFEKQTIYVEPDWSAASYWYAIAALADANASIVLPGLRKNSLQGDIAIISIMEHFGVQSSFESDGLHLNKKVIGSDVSLFNFKECPDLAQTVVVVAAALKRDVSFTGLETLKIKETDRIAALQKEIAKFGAELIEDGDTYHLKTAQVYQPEEVTFDTYEDHRMAMAFAPLALVFDQIKIAEPQVVEKSYPDFWNHLQAQAFVIE
modifications: GRG31 variant (clone L5e3)
GRG31 EPSP synthase [3]
  t1/2 at 37° C.: 10.8 h
  thermostability at 37° C. compared with GRG31: improved thermostability
GRG31 EPSP synthase [1]
  Ki: 507 µM
  Km: 11.4 µM
  Vmax: 3.6

B5: L3P2c11 + 6b2: GRG31 variant Y88→F; N95→S, A206→V, SEQ ID NO:25 (protein)
chain: MNQQVITLTHPSKKIQGTVQLTGSKSESNRALIIQSLSKGQVEIANLSEAADTVTLNRVLQIASDPKPGFNTIDIGPAGTAMRFLTAFLNLVKGSFILTGTERMQQRPIGILVDAMKEIGADIHYDKKVGYPPLKIEGGLFQEKDRVKIKGNISSQYISALLLIAPALKKGLTLEIEGELTSRPYVSMTLDMLKSVGIQHEWKNNVIKIAPQAFEKQTIYVEPDWSAASYWYAIAALADANASIVLPGLRKNSLQGDIAIISIMEHFGVQSSFESDGLHLNKKVIGSDVSLFNFKECPDLAQTVVVVAAALKRDVSFTGLETLKIKETDRIAALQKEIAKFGAELIEDGDTYHLKTAQVYQPEEVTFDTYEDHRMAMAFAPLALVFDQIKIAEPQVVEKSYPDFWNHLQAQAFVIE
modifications: GRG31 variant (L3P2c11+6b2)
GRG31 EPSP synthase [3]
  t1/2 at 37° C.: 3.5 h
  thermostability at 37° C. compared with GRG31: improved thermostability
GRG31 EPSP synthase [1]
  Ki: 405 µM
  Km: 7.9 µM
  Vmax: 23.4
GRG31 EPSP synthase [1]; relative to GRG31(L3P2c11), in words
  Vmax improvement over the GRG31(L3P2c11) protein: about four to five-fold
GRG31 EPSP synthase [1]; relative to GRG31, in words
  Vmax relative to GRG31: approximately equal to that of GRG31
  improvement in Ki for glyphosate relative to GRG31: more than four-fold
  improvement in Km for PEP relative to GRG31: approximately two-fold

B6: GRG31pm3d3: GRG31 Q-loop library 1 variant, SEQ ID NO:12 (protein)
chain: MNQQVITLTHPSKKIQGTVQLTGSKSESNRALIIQSLSKGQVEIANLSEAADTVTLNRVLQIASDPKPGFNTIDCDAAGTATRFLTAFLNLVKGNFILTGTERMQQRPIGILVDAMKEIGADIHYDKKVGYPPLKIEGGLFQEKDRVKIKGNISSQYISALLLIAPALKKGLTLEIEGELTSRPYVSMTLDMLKSVGIQHEWKNNAIKIAPQAFEKQTIYVEPDWSAASYWYAIAALADANASIVLPGLRKNSLQGDIAIISIMEHFGVQSSFESDGLHLNKKVIGSDVSLFNFKECPDLAQTVVVVAAALKRDVSFTGLETLKIKETDRIAALQKEIAKFGAELIEDGDTYHLKTAQVYQPEEVTFDTYEDHRMAMAFAPLALVFDQIKIAEPQVVEKSYPDFWNHLQAQAFVIE
modifications: GRG31 variant (clone GRG31pm3b3)
GRG31 EPSP synthase [2]; extracts
  activity in glyphosate prescreen: best activity

B7: L3P2c11: GRG31 variant Y88→F, SEQ ID NO:14 (protein)
chain: MNQQVITLTHPSKKIQGTVQLTGSKSESNRALIIQSLSKGQVEIANLSEAADTVTLNRVLQIASDPKPGFNTIDIGPAGTAMRFLTAFLNLVKGNFILTGTERMQQRPIGILVDAMKEIGADIHYDKKVGYPPLKIEGGLFQEKDRVKIKGNISSQYISALLLIAPALKKGLTLEIEGELTSRPYVSMTLDMLKSVGIQHEWKNNAIKIAPQAFEKQTIYVEPDWSAASYWYAIAALADANASIVLPGLRKNSLQGDIAIISIMEHFGVQSSFESDGLHLNKKVIGSDVSLFNFKECPDLAQTVVVVAAALKRDVSFTGLETLKIKETDRIAALQKEIAKFGAELIEDGDTYHLKTAQVYQPEEVTFDTYEDHRMAMAFAPLALVFDQIKIAEPQVVEKSYPDFWNHLQAQAFVIE
modifications: GRG31 variant (clone L3P2c11)
GRG31 EPSP synthase [1]
  Ki: 715 µM
  Km: 39.6 µM
  Vmax: 5.3
GRG31 EPSP synthase [1]; relative to GRG31, in words
  improvement in Ki for glyphosate relative to GRG31: improved
GRG31 EPSP synthase [2]
  combination of glyphosate resistance and activity at low PEP concentrations: best combination of glyphosate resistance and activity at low PEP concentrations

B8: L3P2c11 + triple EK: GRG31 variant Y88→F; N95→S, A206→V; E215→K, SEQ ID NO:23 (protein)
chain: MNQQVITLTHPSKKIQGTVQLTGSKSESNRALIIQSLSKGQVEIANLSEAADTVTLNRVLQIASDPKPGFNTIDIGPAGTAMRFLTAFLNLVKGSFILTGTERMQQRPIGILVDAMKEIGADIHYDKKVGYPPLKIEGGLFQEKDRVKIKGNISSQYISALLLIAPALKKGLTLEIEGELTSRPYVSMTLDMLKSVGIQHEWKNNVIKIAPQAFKKQTIYVEPDWSAASYWYAIAALADANASIVLPGLRKNSLQGDIAIISIMEHFGVQSSFESDGLHLNKKVIGSDVSLFNFKECPDLAQTVVVVAAALKRDVSFTGLETLKIKETDRIAALQKEIAKFGAELIEDGDTYHLKTAQVYQPEEVTFDTYEDHRMAMAFAPLALVFDQIKIAEPQVVEKSYPDFWNHLQAQAFVIE
modifications: GRG31 variant (L3P2c11+triple EK)
GRG31 EPSP synthase [3]
  t1/2 at 37° C.: 2.7 h
  thermostability at 37° C. compared with GRG31: thermostability equivalent to GRG31
GRG31 EPSP synthase [1]
  Ki: 298 µM
  Km: 12.6 µM
  Vmax: 14.4
